Assay results from the supplement of paper PMC11246515.
± gives the standard deviation of the averaged measurements.

Experiment: total protein half-life in vivo (active degradation + dilution); higher = more stable protein
[1] = E. coli NCM3722 delta-lon, growth: N-lim chemostat, doubling time 6 h
[2] = E. coli NCM3722 delta-smpB, growth: N-lim chemostat, doubling time 6 h
[3] = wild type E. coli NCM3722, growth: C-lim chemostat, doubling time 6 h
[4] = wild type E. coli NCM3722, growth: C-lim chemostat, doubling time 12 h
[5] = wild type E. coli NCM3722, growth: N-lim chemostat, doubling time 6 h
[6] = wild type E. coli NCM3722, growth: N-lim chemostat, doubling time 12 h
[7] = wild type E. coli NCM3722, growth: P-lim chemostat, doubling time 6 h
[8] = wild type E. coli NCM3722, growth: P-lim chemostat, doubling time 12 h
[9] = E. coli NCM3722 delta-clpP delta-lon delta-hslV, growth: N-lim chemostat, doubling time 6 h
[10] = E. coli NCM3722 delta-clpP, growth: N-lim chemostat, doubling time 6 h
[11] = E. coli NCM3722 delta-hslV, growth: N-lim chemostat, doubling time 6 h
[12] = wild type E. coli NCM3722, growth: C-lim chemostat, doubling time 3 h

Chain of P0ADC1 (chain, as listed by the source): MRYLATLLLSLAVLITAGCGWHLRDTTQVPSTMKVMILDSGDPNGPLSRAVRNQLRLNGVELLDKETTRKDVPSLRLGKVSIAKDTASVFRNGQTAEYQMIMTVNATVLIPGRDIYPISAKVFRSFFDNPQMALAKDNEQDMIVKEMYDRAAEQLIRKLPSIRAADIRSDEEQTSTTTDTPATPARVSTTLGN

## MIEWIIRRSVANRFLVLMGALFLSIWGTWTIINTPVDALPDLSDVQVIIKTSYPGQAPQIVENQVTYPLTTTMLSVPGAKTVRGFSQFGDSYVYVIFEDGTDPYWARSRVLEYLNQVQGKLPAGVSAELGPDATGVGWIYEYALVDRSGKHDLADLRSLQDWFLKYELKTIPDVAEVASVGGVVKEYQVVIDPQRLAQYGISLAEVKSALDASNQEAGGSSIELAEAEYMVRASGYLQTLDDFNHIVLKASENGVPVYLRDVAKVQIGPEMRRGIAELNGEGEVAGGVVILRSGKNAREVIAAVKDKLETLKSSLPEGVEIVTTYDRSQLIDRAIDNLSGKLLEEFIVVAVVCALFLWHVRSALVAIISLPLGLCIAFIVMHFQGLNANIMSLGGIAIAVGAMVDAAIVMIENAHKRLEEWQHQHPDATLDNKTRWQVITDASVEVGPALFISLLIITLSFIPIFTLEGQEGRLFGPLAFTKTYAMAGAALLAIVVIPILMGYWIRGKIPPESSNPLNRFLIRVYHPLLLKVLHWPKTTLLVAALSVLTVLWPLNKVGGEFLPQINEGDLLYMPSTLPGISAAEAASMLQKTDKLIMSVPEVARVFGKTGKAETATDSAPLEMVETTIQLKPQEQWRPGMTMDKIIEELDNTVRLPGLANLWVPPIRNRIDMLSTGIKSPIGIKVSGTVLADIDAMAEQIEEVARTVPGVASALAERLEGGRYINVEINREKAARYGMTVADVQLFVTSAVGGAMVGETVEGIARYPINLRYPQSWRDSPQALRQLPILTPMKQQITLADVADIKVSTGPSMLKTENARPTSWIYIDARDRDMVSVVHDLQKAIAEKVQLKPGTSVAFSGQFELLERANHKLKLMVPMTLMIIFVLLYLAFRRVGEALLIISSVPFALVGGIWLLWWMGFHLSVATGTGFIALAGVAAEFGVVMLMYLRHAIEAVPSLNNPQTFSEQKLDEALYHGAVLRVRPKAMTVAVIIAGLLPILWGTGAGSEVMSRIAAPMIGGMITAPLLSLFIIPAAYKLMWLHRHRVRK
[1]
  total protein half-life in vivo: > 8 h
[2]
  total protein half-life in vivo: 6.09 h
[3]
  total protein half-life in vivo: 7.07 h
[4]
  total protein half-life in vivo: > 16 h
[5]
  total protein half-life in vivo: 5.97 ± 0.71 h
[6]
  total protein half-life in vivo: 12.6 ± 3.8 h
[7]
  total protein half-life in vivo: 6.31 ± 0.89 h
[8]
  total protein half-life in vivo: 12.7 ± 0.39 h

## MAQRIFTLILLLCSTSVFAGLFDAPGRSQFVPADQAFAFDFQQNQHDLNLTWQIKDGYYLYRKQIRITPEHAKIADVQLPQGVWHEDEFYGKSEIYRDRLTLPVTINQASAGATLTVTYQGCADAGFCYPPETKTVPLSEVVANNAAPQPVSVPQQEQPTAQLPFSALWALLIGIGIAFTPCVLPMYPLISGIVLGGKQRLSTARALLLTFIYVQGMALTYTALGLVVAAAGLQFQAALQHPYVLIGLAIVFTLLAMSMFGLFTLQLPSSLQTRLTLMSNRQQGGSPGGVFVMGAIAGLICSPCTTAPLSAILLYIAQSGNMWLGGGTLYLYALGMGLPLMLITVFGNRLLPKSGPWMEQVKTAFGFVILALPVFLLERVIGDVWGLRLWSALGVAFFGWAFITSLQAKRGWMRIVQIILLAAALVSVRPLQDWAFGATHTAQTQTHLNFTQIKTVDELNQALVEAKGKPVMLDLYADWCVACKEFEKYTFSDPQVQKALADTVLLQANVTANDAQDVALLKHLNVLGLPTILFFDGQGQEHPQARVTGFMDAETFSAHLRDRQP
[9]
  total protein half-life in vivo: 6.33 ± 0.17 h
[10]
  total protein half-life in vivo: 6.16 ± 0.66 h
[11]
  total protein half-life in vivo: 5.61 ± 0.96 h
[1]
  total protein half-life in vivo: 6.37 ± 0.69 h
[2]
  total protein half-life in vivo: 5.76 ± 0.13 h
[3]
  total protein half-life in vivo: 5.22 ± 0.15 h
[4]
  total protein half-life in vivo: 13.2 ± 1 h
[5]
  total protein half-life in vivo: 6.08 ± 0.72 h
[6]
  total protein half-life in vivo: 11.9 ± 0.37 h
[7]
  total protein half-life in vivo: 5.82 ± 0.19 h
[8]
  total protein half-life in vivo: 12.35 ± 0.1 h

## P0ADC1
[9]
  total protein half-life in vivo: 6.56 ± 1.7 h
[11]
  total protein half-life in vivo: 6.27 ± 0.14 h
[2]
  total protein half-life in vivo: 6.59 ± 0.86 h
[12]
  total protein half-life in vivo: 2.97 ± 0.026 h
[3]
  total protein half-life in vivo: 6.71 ± 0.69 h
[4]
  total protein half-life in vivo: 12.9 ± 0.43 h
[5]
  total protein half-life in vivo: 6.33 ± 0.095 h
[6]
  total protein half-life in vivo: 11.7 ± 1.9 h
[8]
  total protein half-life in vivo: 12.7 ± 0.69 h

## MSQLPGLSRETRESIAMYHLRVPQTEEELERYYQFRWEMLRKPLHQPKGSERDAWDAMAHHQMVVDEQGNLVAVGRLYINADNEASIRFMAVHPDVQDKGLGTLMAMTLESVARQEGVKRVTCSAREDAVEFFAKLGFVNQGEITTPTTTPIRHFLMIKPVATLDDILHRGDWCAQLQQAWYEHIPLSEKMGVRIQQYTGQKFITTMPETGNQNPHHTLFAGSLFSLATLTGWGLIWLMLRERHLGGTIILADAHIRYSKPISGKPHAVADLGALSGDLDRLARGRKARVQMQVEIFGDETPGAVFEGTYIVLPAKPFGPYEEGGNEEE [P0ADQ2]
[9]
  total protein half-life in vivo: 5.56 ± 0.43 h
[10]
  total protein half-life in vivo: 4.46 ± 0.32 h
[11]
  total protein half-life in vivo: 5.1 ± 0.92 h
[1]
  total protein half-life in vivo: 4.93 ± 0.26 h
[2]
  total protein half-life in vivo: 4.38 ± 0.27 h
[12]
  total protein half-life in vivo: 2.8559 ± 0.0026 h
[3]
  total protein half-life in vivo: 5.57 ± 0.27 h
[4]
  total protein half-life in vivo: 9.83 ± 0.3 h
[5]
  total protein half-life in vivo: 4.71 ± 0.12 h
[6]
  total protein half-life in vivo: 8.84 ± 1.4 h
[7]
  total protein half-life in vivo: 5.88 ± 0.23 h
[8]
  total protein half-life in vivo: 11.8 ± 0.52 h

## MKKWAVIISAVGLAFAVSGCSSDYVMATKDGRMILTDGKPEIDDDTGLVSYHDQQGNAMQINRDDVSQIIER
[9]
  total protein half-life in vivo: 4.61 ± 0.25 h
[10]
  total protein half-life in vivo: 5.4 h
[11]
  total protein half-life in vivo: 4.24 ± 0.17 h
[1]
  total protein half-life in vivo: 6.65 ± 0.55 h
[2]
  total protein half-life in vivo: 3.25 ± 1.1 h
[12]
  total protein half-life in vivo: 2.24 ± 0.32 h
[3]
  total protein half-life in vivo: 4.63 ± 0.37 h
[4]
  total protein half-life in vivo: 7.88 ± 0.34 h
[5]
  total protein half-life in vivo: 4.76 ± 0.35 h
[6]
  total protein half-life in vivo: 8.92 ± 2.6 h
[7]
  total protein half-life in vivo: 3.68 ± 0.91 h
